This note sets out measurements from publication PMC10288592.

For the experiment, the target named is PYCO1(452 to 592) (Phaeodactylum tricornutum). The experiment can be described thus: cryo-EM structure; single particle cryo-EM of the Rubisco–PYCO1(452 to 592) complex.

As a reminder, the stoichiometry N is a count of units in the complex or per binding partner.

PYCO1(452 to 592) (domain or fragment): the stoichiometry N turned out to be 4.
